Test results published in US5811298, “Rep-max protein having anti-oncogenic activity and uses thereof” (Albert Einstein College of Medicine of Yeshiva University, …, dated 1998).

Biological target: mouse c-Myc (mouse, UniProt P01108-2)
Assay: cell-based or functional assay

fold suppression of c-myc/RAS foci formation, REF cooperation assay [fold suppression]	Binder
8.1	mouse Mxi-SR protein (other) MERVRMINVQRLLEAAEFLERRERECEHGYASSFPSMPSPRLQHSKPPRRLSRAQKHSSGSSNTSTANRSTHNELEKNRRAHLRLCLKRLKVLIPLGPDCTRHTTLGLLNKAKAHIKKLEEAERKSQHQLENLEREQRFLKRRLEQLQGPQEMERIRMDSIGSTISSDRSDSEREEIEVDVESTEFSHGKADSVSTTSISDLDDHSSLQSVGSDEGYSSASVKLSFAS
1.78	mouse Mxi-SR-pro (other) MERVRMINVQRLLEAAEFPERRERECEHGYASSFPSMPSPRLQHSKPPRRLSRAQKHSSGSSNTSTANRSTHNELEKNRRAHLRLCLKRLKVLIPLGPDCTRHTTLGLLNKAKAHIKKLEEAERKSQHQLENLEREQRFLKRRLEQLQGPQEMERIRMDSIGSTISSDRSDSEREEIEVDVESTEFSHGKADSVSTTSISDLDDHSSLQSVGSDEGYSSASVKLSFAS
5.3	human MXI protein (other) MERVKMINVQRLLEAAEFLERRERECEHGYASSFPSMPSPRLQHSKPPRRLSRAQKHSSGSSNTSTANRSTHNELEKNRRAHLRLCLKRLKVLIPLGPDCTRHTTLGLLNKAKAHIKKLEEAERKSQHQLENLEREQRFLKWRLEQLQGPQEMERIRMDSIGSTISSDRSDSEREEIEVDVESTEFSHGKVDNISTTSISDIDDHSSLPSIGSDEGYSSASVKLSFTS
1.57	mouse Mxi-Δrep (other) MERFPSMPSPRLQHSKPPRRLSRAQKHSSGSSNTSTANRSTHNELEKNRRAHLRLCLKRLKVLIPLGPDCTRHTTLGLLNKAKAHIKKLEEAERKSQHQLENLEREQRFLKRRLEQLQGPQEMERIRMDSIGSTISSDRSDSEREEIEVDVESTEFSHGKADSVSTTSISDLDDHSSLQSVGSDEGYSSASVKLSFAS
1.74	mouse Mxi-WR protein (other) MPSPRLQHSKPPRRLSRAQKHSSGSSNTSTANRSTHNELEKNRRAHLRLCLKRLKVLIPLGPDCTRHTTLGLLNKAKAHIKKLEEAERKSQHQLENLEREQRFLKRRLEQLQGPQEMERIRMDSIGSTISSDRSDSEREEIEVDVESTEFSHGKADSVSTTSISDLDDHSSLQSVGSDEGYSSASVKLSFAS
